From patent US11034736B2, “Anti-viral cnidarins” (priority 2014, dated 2021)

Legend:
[1] = test system: HIV-1IIIB; assay: Viral fusion assay, chemiluminescence in HeLa CD4 LTR β-gal cells; type: cell-based
Procedure: (§1) Attachment and fusion assays were performed in HeLa-CD4-LTR-β-galactosidase cell lines as described previously (Gartner & Popovic, (1990), supra) with the following modifications. Following the interaction of HIV-1IIIIIB with HeLa CD4 LTR β-gal cells, viral attachment to HeLa CD4 LTR β-gal cells was detected as cell-associated p24 antigen following a 1 hour adsorption of virus and vigorous washing for removal of unbound virus. Fusion of HIV-1IIIIB with HeLa CD4 LTR β-gal cells was detected by chemiluminescence using a single-step lysis and detection method (Tropix Gal-screen, Bedford, Mass.) and results reported as EC50 values. Chicago Sky Blue, a polysulfonic acid dye inhibitor of HIV attachment and fusion, was used as a positive control for all assays (Clanton et al., J. Acquired Immune Defic. Syndr., 5: 771-781 (1992)).

[2] = test system: HIV-1IIIB; assay: Viral attachment assay, cell-associated p24 antigen in HeLa CD4 LTR β-gal cells; type: cell-based
Procedure: as §1

[3] = test system: Macrophage; assay: Cell viability of monocyte/macrophage cultures (CellTiter formazan dye reduction); type: cell-based, human; details: macrophages
Description: (§2) To test the anti-HIV activity of CNID1 against HIV primary isolates in fresh human cells, monocyte-tropic HIV-1 strain Ba-L was obtained from the NIAID AIDS Research and Reference Reagent Program (National Institutes of Health, Bethesda, Md.). The low passage HIV-1 pediatric isolate ROJO was derived as described previously (Buckheit et al., AIDS Res. Hum. Retroviruses, 10: 1497-1506 (1994)). Human peripheral blood mononuclear cells (PBMCs) and macrophages were isolated from hepatitis and HIV seronegative donors following Ficoll-Paque centrifugation as described elsewhere (Gartner & Popovic, Techniques in HIV Research, Aldovini, A. and Walker B., eds., pp. 59-63, Stockton Press, New York, 1990). Antiviral assays were carried out with 3-day-old phytohaemagglutinin/interleukin-2 stimulated PBMCs or 6-day-cultured monocyte/macrophages. […] HIV-1 replication in PBMC (ROJO) or monocyte macrophage (Ba-L) cultures were determined by measurement of reverse transcriptase activity (Buckheit et al., Antiviral Res., 21: 247-265 (1993)) in the supernatants or p24 antigen expression by ELISA (Coulter, Hialeah, Fla.), respectively. Cell viability by formazan dye reduction was determined in replicated cultures using the CellTiter reagent (Promega, Madison, Wis.). […]

[4] = test system: HIV-1US/92/727; assay: Anti-HIV evaluation in PHA-stimulated human PBMCs, reverse transcriptase in supernatant; type: cell-based; details: HIV-1US/92/727, human PBMCs, 7 days
Procedure: The cultures were incubated for 7 days at 37° C./5% CO2. Efficacy of the compounds was evaluated by measuring the amount of reverse transcriptase in the culture supernatant and toxicity was evaluated using XTT to measure cell viability. AZT was evaluated in parallel as an assay control.

[5] = target: HIV-1HXB2 gp41 (Human immunodeficiency virus type 1 group M subtype B, UniProt P04578); details: ELISA, 100 ng/well gp41
Procedure: High protein binding Greiner 96-well plates (VWR, Bridgeport, N.J.) were coated with 1 pmol/well of recombinant HIV-1IIIIB gp120 (Immuno Diagnostics, Woburn, Mass.) or recombinant HIV-1HXB2 gp41 (Vybion Inc., Ithaca, N.Y.) at 4° C. overnight. The wells were emptied and then blocked with 200 μl/well of 3% non-fat dry milk (Bio-Rad, Hercules, Calif.) blocking solution for 2 hrs. A control plate was incubated with blocking solution only. After washing three times with PBST, 0.5-log10 serial dilutions of rCNID-1-Trx were added to triplicate wells of gp120−, gp41− and the blocking solution control plate, and the plates were incubated for 2 hrs. The plates were washed with PBST and 100 W/well of a 1:250 dilution of polyclonal rabbit anti-CNID-1 antibody was added and allowed to incubate for 1 hr, followed by three washes with PBST. Goat anti-rabbit (H+L), peroxidase conjugated secondary antibody (Thermo Fisher Scientific Inc., Rockford, Ill.) was added to each well (100 μl/well of a 1:1000 dilution) and further incubated for 1 hr, followed by three washes with PBST. The TMB 2-component Microwell peroxidase substrate kit (KPL Inc., Gaithersburg, Md.) was used for peroxidase detection: 100 W/well, incubation for 5-10 min and the reaction was stopped by addition of 0.5M HCl (100 W/well) before reading the absorbance at 450 nm.

[6] = test system: PBMC; assay: Cell viability of PBMC cultures (CellTiter formazan dye reduction); type: cell-based, human
Description: as §2

[7] = test system: HIV-1ROJO; assay: HIV-1 ROJO replication in human PBMC cultures, supernatant reverse transcriptase activity; type: cell-based; details: T-tropic primary isolate
Description: as §2

Sequence of HIV-1HXB2 gp41 (P04578 512-856): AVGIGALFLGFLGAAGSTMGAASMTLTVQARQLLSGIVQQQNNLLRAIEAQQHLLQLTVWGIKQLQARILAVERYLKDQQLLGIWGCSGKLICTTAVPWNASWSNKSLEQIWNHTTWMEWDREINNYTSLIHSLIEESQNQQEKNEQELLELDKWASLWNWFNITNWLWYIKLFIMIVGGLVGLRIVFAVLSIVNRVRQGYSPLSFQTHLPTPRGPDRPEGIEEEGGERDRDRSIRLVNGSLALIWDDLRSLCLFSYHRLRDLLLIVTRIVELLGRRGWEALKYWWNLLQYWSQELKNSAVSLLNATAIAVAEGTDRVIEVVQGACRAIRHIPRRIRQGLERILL

B1: CNID-1: HIV-inhibitory protein from soft coral Synthecium sp.; 172 amino acids, 18,122 Da, SEQ ID NO: 1 (protein)
chain: GRATLGQLKTSTIPPVTFDVPFDGANIPQDVRFTIATVNGGKGALYNAELGESAGHTIVLESDGDHPIPGTFDPKSGRGLDYLPRGLVLFSSHNYVGNMKMYTEPDSDITADFPPGTPFGVSSAITGEGSAFQLNTGIDHTGEFEIIPPNTKRNLAGVFDNEIRSVSPTGGK
- Inhibition of viral fusion [1]: inhibit HIV viral fusion
- EC50 ([1]; read-out: Inhibition of Fusion EC50): 1.49 nM
- Inhibition of viral attachment to the cell [2]: did not inhibit attachment
- EC50 ([2]; read-out: Inhibition of Attachment EC50): > 55.2 nM
- CC50 [3]: 3.56 nM
- EC50 [4]: 0.0427 µg/mL
- Binding to gp41 [5]: not gp41
- CC50 [6]: 144 nM
- EC50 [7]: 3.97 nM
